# Data taken from patent publication US10358672B2, “7-β-hydroxysteroid dehydrogenase mutants and process for the preparation of ursodeoxycholic acid” (Pharmazell GmbH, priority 2014, dated 2019).
# Where a chain is given by its changes, count along the chain named. Names may count otherwise.
# B1: Collinsella aerofaciens 7β-HSDH mutant [R64E], with His tag, SEQ ID NO:4 (Collinsella aerofaciens ATCC 25986; R64E) (protein)
# chain: MNLREKYGEWGLILGATEGVGKAFCEKIAAGGMNVVMVGRREEKLNVLAGEIRETYGVETKVVEADFSQPGAAETVFAATEGLDMGFMSYVACLHSFGKIQDTPWEKHEAMINVNVVTFLKCFHHYMRIFAAQDRGAVINVSSMTGISSSPWNGQYGAGKAFILKMTEAVACECEGTGVDVEVITLGTTLTPSLLSNLPGGPQGEAVMKIALTPEECVDEAFEKLGKELSVIAGQRNKDSVHDWKANHTEDEYIRYMGSFYRDLEHHHHHH
# B2: Collinsella aerofaciens 7β-HSDH (WT), with C-terminal His tag, SEQ ID NO:3 (Collinsella aerofaciens ATCC 25986) (protein)
# chain: B1 chain with E64R
# B3: Collinsella aerofaciens 7β-HSDH mutant [G39S], with His tag, SEQ ID NO:5 (Collinsella aerofaciens ATCC 25986; G39S) (protein)
# chain: B1 chain with G39S, E64R
# B4: Collinsella aerofaciens 7β-HSDH dual mutant [G39S/R64E], with His tag, SEQ ID NO:6 (Collinsella aerofaciens ATCC 25986; G39S/R64E) (protein)
# chain: B1 chain with G39S
# B5: 7β-HSDH [G39S]: 7β-HSDH mutant which contains serine instead of glycine at position 39; His tag, SEQ ID NO:5 (protein)
# chain: B1 chain with G39S, E64R
# modifications: His tag; 7-beta-HSDH G39S Mutant
# B6: 7β-HSDH [R64E]: 7β-HSDH mutant, arginine (R) in position 64 replaced by glutamic acid (E); His tag, SEQ ID NO:4 (protein)
# chain: B1 chain
# modifications: His tag; 7-beta-HSDH R64E Mutant
# B7: 7β-HSDH [R64N]: 7β-HSDH mutant, R in position 64 replaced by N (protein, UniProt A4ECA9 1-263, looked up, variant R64N)
# 7beta-hydroxysteroid …: MNLREKYGEWGLILGATEGVGKAFCEKIAAGGMNVVMVGRREEKLNVLAGEIRETYGVETKVVNADFSQPGAAETVFAATEGLDMGFMSYVACLHSFGKIQDTPWEKHEAMINVNVVTFLKCFHHYMRIFAAQDRGAVINVSSMTGISSSPWNGQYGAGKAFILKMTEAVACECEGTGVDVEVITLGTTLTPSLLSNLPGGPQGEAVMKIALTPEECVDEAFEKLGKELSVIAGQRNKDSVHDWKANHTEDEYIRYMGSFYRD
# B8: 7β-HSDH [T17S]: 7β-HSDH mutant, threonine at position 17 replaced by S (protein, UniProt A4ECA9 1-263, looked up, variant T17S)
# 7beta-hydroxysteroid …: B7 7beta-hydroxysteroid … with T17S, N64R
# B9: 7β-HSDH [T17F]: 7β-HSDH mutant, threonine at position 17 replaced by F (protein, UniProt A4ECA9 1-263, looked up, variant T17F)
# 7beta-hydroxysteroid …: B7 7beta-hydroxysteroid … with T17F, N64R
# B10: 7β-HSDH [G39S/R64E]: 7β-HSDH dual mutant, positions 39 ([G39S]) and 64 ([R64E]) modified at the same time; His tag, SEQ ID NO:6 (protein)
# chain: B1 chain with G39S, E64R
# modifications: His tag; 7-beta-HSDH G39S/R64E Mutant
# How the values were obtained:
# [1] = target: 7β-HSDH obtainable from Collinsella aerofaciens DSM 3979 (Collinsella aerofaciens, UniProt A4ECA9); settings: cited from earlier work
# 7β-HSDH obtainable from Collinsella aerofaciens DSM 3979, sequence (A4ECA9 whole entry): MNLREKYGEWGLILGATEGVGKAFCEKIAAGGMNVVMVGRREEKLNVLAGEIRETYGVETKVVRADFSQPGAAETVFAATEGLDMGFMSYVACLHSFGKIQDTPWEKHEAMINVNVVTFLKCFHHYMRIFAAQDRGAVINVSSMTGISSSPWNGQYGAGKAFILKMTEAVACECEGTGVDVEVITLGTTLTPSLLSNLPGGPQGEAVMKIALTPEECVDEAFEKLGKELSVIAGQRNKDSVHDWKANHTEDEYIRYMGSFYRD
# [2] = system: Collinsella aerofaciens DSM 3979 (ATCC 25986) 7β-HSDH, wild type, SEQ ID NO:2; settings: cited from earlier work
# [3] = substrate: NC(=O)C1=CN([C@@H]2O[C@H](COP(=O)(O)OP(=O)(O)OC[C@H]3O[C@@H](n4cnc5c(N)ncnc54)[C@H](OP(=O)(O)O)[C@@H]3O)[C@@H](O)[C@H]2O)C=CC1; assay: cells, lysate or membranes named; settings: other: purified enzyme, 340 nm, 50 mM KPi pH 8.0, substrate DHCA / cofactor NADPH
# [4] = substrate: C[C@H](CCC(=O)O)[C@H]1CC[C@H]2[C@@H]3C(=O)C[C@@H]4CC(=O)CC[C@]4(C)[C@H]3CC(=O)[C@]12C; assay: cells, lysate or membranes named; settings: other: purified enzyme, 340 nm, 50 mM KPi pH 8.0, substrate DHCA / cofactor NADPH
# [5] = substrate: NC(=O)C1=CN([C@@H]2O[C@H](COP(=O)(O)OP(=O)(O)OC[C@H]3O[C@@H](n4cnc5c(N)ncnc54)[C@H](OP(=O)(O)O)[C@@H]3O)[C@@H](O)[C@H]2O)C=CC1; assay: purified protein, by the assay type; settings: other: purified enzyme, 340 nm, 50 mM KPi pH 8.0, substrate DHCA / cofactor NADPH
# [6] = substrate: C[C@H](CCC(=O)O)[C@H]1CC[C@H]2[C@@H]3C(=O)C[C@@H]4CC(=O)CC[C@]4(C)[C@H]3CC(=O)[C@]12C; assay: purified protein, by the assay type; settings: other: purified enzyme, 340 nm, 50 mM KPi pH 8.0, substrate DHCA / cofactor NADPH
# [7] = Cofactor specificity of 7β-HSDH types (compilation of improvements); type: biochemical
# [8] = Photometric activity determination of 7β-HSDH and mutants (decrease in absorbance at 340 nm, DHCA reduction with NADPH); type: biochemical
# Method: The activity of the 7β-HSDH and of the mutants was determined using a photometric assay, where the decrease in absorbance was measured at 340 nm over a period of 30 seconds.
# The expression [R64E] in the first column of the table means that the arginine (R) in position 64 of the protein sequence had been replaced by glutamic acid (E) in the mutant in question. The respective amino acid is abbreviated using the international one-letter code. Analogously, [R64D] means that an aspartic acid has been introduced at this position.
# [9] = Table 4, variants modified at position 64, 10 mM DHCA, NADPH, KPi pH 8.0
# [10] = Table 9, variants modified at position 17
# [11] = Table 10, dual mutant versus wild type
molecule,measurement,setting,value
NC(=O)C1=CN([C@@H]2O[C@H](COP(=O)(O)OP(=O)(O)OC[C@H]3O[C@@H](n4cnc5c(N)ncnc54)[C@H](OP(=O)(O)O)[C@@H]3O)[C@@H](O)[C@H]2O)C=CC1 [NADPH],Vmax,[1],33.44 U/mg Protein
same,kcat,[1],1033.44
"C[C@H](CCC(=O)O)[C@H]1CC[C@H]2[C@@H]3C(=O)C[C@@H]4C[C@H](O)CC[C@]4(C)[C@H]3CC[C@]12C [Mutant 7-Keto-LCA, 7-keto-lithocholic acid]",Vmax,[1],30.77 U/mg Protein
same,kcat,[1],950.77
NC(=O)c1ccc[n+]([C@@H]2O[C@H](COP(=O)([O-])OP(=O)(O)OC[C@H]3O[C@@H](n4cnc5c(N)ncnc54)[C@H](OP(=O)(O)O)[C@@H]3O)[C@@H](O)[C@H]2O)c1 [NADP^+],kcat,[2],944.95
same,Vmax,[1],30.58 U/mg Protein
same,kcat,[1],944.95
"C[C@H](CCC(=O)O)[C@H]1CC[C@H]2[C@@H]3[C@@H](O)C[C@@H]4C[C@H](O)CC[C@]4(C)[C@H]3CC[C@]12C [UDCA, Ursodeoxycholic acid]",kcat,[1],1179.39
B1,Km,[3],45.48 ± 3.5 µM
same,Vmax,[3],60.3 µmol/min/mg
same,Km,[4],81.01 ± 18.9 µM
same,Vmax,[4],41.6 µmol/min/mg
B2,Km,[5],15.2 ± 2.2 µM
same,Vmax,[5],8.8 µmol/min/mg
same,Km,[6],20.5 ± 2.9 µM
same,Vmax,[6],8.7 µmol/min/mg
B3,Km,[3],34.5 ± 6.6 µM
same,Vmax,[3],48.8 µmol/min/mg
same,Km,[4],352.4 ± 42.7 µM
same,Vmax,[4],52 µmol/min/mg
B4,Km,[3],76.6 ± 15.9 µM
same,Vmax,[3],75.5 µmol/min/mg
same,Km,[4],349.3 ± 5.23 µM
same,Vmax,[4],54.3 µmol/min/mg
B5,Cofactor specificity,[7],NADPH
same,Volumetric activity,"[8]; text of example 3, position 39",735 U/ml
same,specific enzymatic activity,"[8]; text of example 3, position 39, per mg protein",52.9 U/mg
B6,Cofactor specificity,[7],NADPH
same,Specific activity,[8]; [9],60.2 U/mg
same,Volumetric activity,[8]; [9],892.7 U/ml
same,activity compared with the wild-type enzyme,[8]; qualitative statement,increase in the specific activity
B7,Specific activity,[8]; [9],0.6 U/mg
same,Volumetric activity,[8]; [9],3.4 U/ml
B8,Specific activity,[8]; [10],17.2 U/mg
same,Volumetric activity,[8]; [10],580 U/ml
B9,Cofactor specificity,[7],NADPH/low
same,Specific activity,[8]; [10],46.1 U/mg
same,Volumetric activity,[8]; [10],645.2 U/ml
B10,Cofactor specificity,[7],NADPH
same,Specific activity,[8]; [11],57.5 U/mg
same,Volumetric activity,[8]; [11],1115.0 U/ml
